According to US20250243240A1:

Molecular target: Vascular endothelial growth factor (VEGF) (Homo sapiens (Human)) (UniProt P15692)

## Peak 1 fraction of hydrophobic interaction chromatography of purified aflibercept (pool or library)
  relative titer: 6.6%
